Measurements published in IntAct's records for PubMed 16234233.

B1: Acid-sensing ion channel 3 (Rattus norvegicus (Rat)), O35240 (parent)
chain: MKPRSGLEEAQRRQASDIRVFASSCTMHGLGHIFGPGGLTLRRGLWATAVLLSLAAFLYQVAERVRYYGEFHHKTTLDERESHQLTFPAVTLCNINPLRRSRLTPNDLHWAGTALLGLDPAEHAAYLRALGQPPAPPGFMPSPTFDMAQLYARAGHSLEDMLLDCRYRGQPCGPENFTVIFTRMGQCYTFNSGAHGAELLTTPKGGAGNGLEIMLDVQQEEYLPIWKDMEETPFEVGIRVQIHSQDEPPAIDQLGFGAAPGHQTFVSCQQQQLSFLPPPWGDCNTASLDPDDFDPEPSDPLGSPRPRPSPPYSLIGCRLACESRYVARKCGCRMMHMPGNSPVCSPQQYKDCASPALDAMLRKDTCVCPNPCATTRYAKELSMVRIPSRASARYLARKYNRSESYITENVLVLDIFFEALNYEAVEQKAAYEVSELLGDIGGQMGLFIGASLLTILEILDYLCEVFQDRVLGYFWNRRSAQKRSGNTLLQEELNGHRTHVPHLSLGPRPPTTPCAVTKTLSASHRTCYLVTRL
partner: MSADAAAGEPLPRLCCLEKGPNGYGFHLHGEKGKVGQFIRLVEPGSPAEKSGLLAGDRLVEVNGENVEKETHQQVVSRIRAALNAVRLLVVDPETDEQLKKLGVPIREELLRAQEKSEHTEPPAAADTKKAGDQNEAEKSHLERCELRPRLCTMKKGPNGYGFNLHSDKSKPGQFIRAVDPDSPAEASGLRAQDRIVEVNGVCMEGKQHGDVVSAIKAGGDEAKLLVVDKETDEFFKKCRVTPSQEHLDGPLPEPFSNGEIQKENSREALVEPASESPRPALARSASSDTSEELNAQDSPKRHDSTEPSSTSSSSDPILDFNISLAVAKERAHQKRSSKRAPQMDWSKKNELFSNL

Variants of: B1
Settings: with nhrf1_rat Nherf1, Q9JJ19
For MKPRSGLEEAQRRQASDIRVFASSCTMHGLGHIFGPGGLTLRRGLWATAVLLSLAAFLYQVAERVRYYGEFHHKTTLDERESHQLTFPAVTLCNINPLRRSRLTPNDLHWAGTALLGLDPAEHAAYLRALGQPPAPPGFMPSPTFDMAQLYARAGHSLEDMLLDCRYRGQPCGPENFTVIFTRMGQCYTFNSGAHGAELLTTPKGGAGNGLEIMLDVQQEEYLPIWKDMEETPFEVGIRVQIHSQDEPPAIDQLGFGAAPGHQTFVSCQQQQLSFLPPPWGDCNTASLDPDDFDPEPSDPLGSPRPRPSPPYSLIGCRLACESRYVARKCGCRMMHMPGNSPVCSPQQYKDCASPALDAMLRKDTCVCPNPCATTRYAKELSMVRIPSRASARYLARKYNRSESYITENVLVLDIFFEALNYEAVEQKAAYEVSELLGDIGGQMGLFIGASLLTILEILDYLCEVFQDRVLGYFWNRRSAQKRSGNTLLQEELNGHRTHVPHLSLGPRPPTTPCAVTKTLSAGHRTCYLVTRL [S523G], the “effect of a mutation on the interaction” value was “decreasing interaction”. MKPRSGLEEAQRRQASDIRVFASSCTMHGLGHIFGPGGLTLRRGLWATAVLLSLAAFLYQVAERVRYYGEFHHKTTLDERESHQLTFPAVTLCNINPLRRSRLTPNDLHWAGTALLGLDPAEHAAYLRALGQPPAPPGFMPSPTFDMAQLYARAGHSLEDMLLDCRYRGQPCGPENFTVIFTRMGQCYTFNSGAHGAELLTTPKGGAGNGLEIMLDVQQEEYLPIWKDMEETPFEVGIRVQIHSQDEPPAIDQLGFGAAPGHQTFVSCQQQQLSFLPPPWGDCNTASLDPDDFDPEPSDPLGSPRPRPSPPYSLIGCRLACESRYVARKCGCRMMHMPGNSPVCSPQQYKDCASPALDAMLRKDTCVCPNPCATTRYAKELSMVRIPSRASARYLARKYNRSESYITENVLVLDIFFEALNYEAVEQKAAYEVSELLGDIGGQMGLFIGASLLTILEILDYLCEVFQDRVLGYFWNRRSAQKRSGNTLLQEELNGHRTHVPHLSLGPRPPTTPCAVTKTLSADHRTCYLVTRL [S523D] was tested, and the “effect of a mutation on the interaction” value was “increasing interaction”.
